Assay [1] concerns the target Unmodified nucleosome core particle (X. laevis histone octamer on 147 bp Widom-601 DNA) (X. laevis).
Another assay deals with H4K16ac nucleosome (X. laevis | , acetyl-lysine at K16).

For orientation: Kd means a measure of binding affinity in units of concentration. The low end stands for tighter binding, the high end for weaker binding.

B1: Wild-type Orc1 (1–214) BAH domain (domain or fragment)
chain: MAKTLKDLQGWEIITTDEQGNIIDGGQKRLRRRGAKTEHYLKRSSDGIKLGRGDSVVMHNEAAGTYSVYMIQELRLNTLNNVVELWALTYLRWFEVNPLAHYRQFNPDANILNRPLNYYNKLFSETANKNELYLTAELAELQLFNFIRVANVMDGSKWEVLKGNVDPERDFTVRYICEPTGEKFVDINIEDVKAYIKKVEPREAQEYLKDLTLP
modifications: N-alpha-acetyl on A2 (acetylated at the α-amino group when purified from eukaryotic cells)
In assay [1], B1 yielded a Kd of 1100 nM.

B2: Sir3 BAH D205Q (domain or fragment)
chain: MAKTLKDLDGWQVIITDDQGRVIDDNNRRRSRKRGGENVFLKRISDGLSFGKGESVIFNDNVTETYSVYLIHEIRLNTLNNVVEIWVFSYLRWFELKPKLYYEQFRPDLIKEDHPLEFYKDKFFNEVNKSELYLTAELSEIWLKDFIAVGQILPESQWNDSSIDKIEDRDFLVRYACEPTAEKFVPIDIFQIIRRVKEMEPKQSQEYLKRVSVP
For the molecule B2, the values for the Kd (in assay [1]; in the assay with H4K16ac nucleosome) were 300 nM and 1200 nM, respectively.

For the origin of these results see paper PMC6602975 (2019).
